Results published in publication PMC12377726 (Proceedings of the National Academy of Sciences of the …, 2025).

Molecular target: eOD-GT8 (engineered outer domain germline-targeting version 8), monomer (HIV-1 gp120 engineered outer domain, …)

Binder | binding result
G001_gp1_V08_VRC01c_117 (antibody, V domains shown) VH: not shown VL: DIQMTQSPSSLSASVGDRVTITCQASQDISNYLNWYQQKPGKAPKLLIYDASNLEKGVPSRFSGGGSGTDFTFTISSLQPEDIATYYCQQYEFFGPGTKVDIK | binds
G001_gp1_V08_VRC01c_119 (antibody, V domains shown) VH: QVQLVQSGADVKKPGASVKVSCKASGYTFSGYYMHWVRQAPGQGLEWMGWINPNSGGTNYAQNFQGRVTMTRDTSISTAYMELSSLTSDDTAVYYCASPRYSNGNRCYRYWGQGTLVTVSS VL: DIQMTQSPSSLSASVGDRVTITCQASQDISNYLNWYQHHPGRAPKLLIYDASNLETGVPSRFSGSGSGTDFTFTISSLQPEDVATYYCQQYDYFGPGTKVDIK | binds
G001_gp1_V08_VRC01c_132 (antibody, V domains shown) VH: QVQLVQSGAEVKKPGASVKVSCKASGYTFSGYYMHWVRQAPGQGLEWMGWINPNSGGTNYAQKFQGWVTMTRDTSISTAYMELSRLKSDDTAVYYCARVEHTSGWCFDSWGQGTLVTVSS VL: DIQMTQSPSSLSASVGDRVTITCQASQDISNYLNWYQQKPGKAPKLLISDASNLETGVPSRFSGSGSGTDFTFTISSLQPEDIATYYCQQYDIFGPGTKVEIK | binds
G001_gp1_V08_VRC01c_126 (antibody, V domains shown) VH: QVQLVQSGAEVKKPGASVKVSCKASGYTFTGYYMHWVRQAPGQGLEWMGWINPNSGGTNYAQKFQDWVTMTRDTSISTAYMELNRLRSDDAAIYYCARADIVATIWALDYWGQGTLVTVSS VL: DIQMTQSPSSLSASVGDRVTITCQASQDISTYLNWYQQKPGKAPKLLIYDASNLETGVPSRFSGSGSGTDFTFTISSLQPEDSATYYCQQYGTFGQGTKVEIK | binds
G001_gp1_V08_VRC01c_135 (antibody, V domains shown) VH: QVQLVQSGAEVKKPGASVKVSCKASGYIFTGYYMHWVRQAPGQGLEWMGWINPNSGGTNYAQKFQGWVTMTRDTSISTAYMELSRLRSDDTAVYYCASSVGVPAARGWAFDMWGQGTMVTVSS VL: DIQMTQSPSSLSASVGDRVTITCQASQDISNYLNWYQQKPGKAPKLLIYDASDLETGVPSRFSGSGSGTDFTFTISSLQPEDIATYYCQQYDLFGPGTKVDIK | binds
G001_gp1_V08_VRC01c_144 (antibody, V domains shown) VH: QVQLVQSGAEVKKPGASVKVSCKASGYTFSGHYMHWVRQAPGQGLEWMGWINPNSGGTNYAQKFQGRVTMTRDTSISSAYMELSRLRSDDTAVYYCATHTGSGSSWSFDSWGQGTLVTVSS VL: DIQMTQSPSSLSASVGDRVTITCQASQDISNYLNWYQQKPGKAPKLLIYDASNLETGVPSRFSGSGSGTDFTFTISSLQPEDIATYYCQQYEYFGQGTRLEIK | binds
G001_gp1_V08_VRC01c_140 (antibody, V domains shown) VH: QVQLVQSGAEVKMPGTSVKVSCKASGYTFTDYYMHWVRQAPGQGLEWMGWINPNSGGTNYEQRFQGRVTMTRDTSISTAYMDLRRLRSDDTAVYYCATSLVETSTHWAFDLWGQGTMVTVSS VL: DFQMTQSPSTLSASVGDRVTITCRTSQSFSTWLAWYQQKPGKAPKLLIYEASSLQSGVPSRFSGSGSGTEFTLTISSLQPDDLATYYCQQYETFGQGTKVAIK | binds
G001_gp1_V08_VRC01c_123 (antibody, V domains shown) VH: not shown VL: EIVMTQSPATLSVSPGERATLSCRANQSVSSNLAWYQQKPGQAPRLLIYGASTRATGIPARFSGSGSGTEFTLTISSLQSEDFAVYYCQQYNSFGQGTKLEIK | binds
G001_gp1_V08_VRC01c_136 (antibody, V domains shown) VH: not shown VL: EIVMTQSPATLSVSPGERATLSCRASQSVSSNLAWYQQKPGQAPRLLIYGASTRATGIPARFSGSGSGTEFTLTISSLQSEDFAVYYCQQYSTFGGGTKVEIK | binds
G001_gp1_V08_VRC01c_116 (antibody, V domains shown) VH: QVQLVQSGAEVKKPGASGKVSCKASGYTFTDYYMYWVRQAPGQGLEWMGWINPNSGGSNYAQKFQGRVTMTRDTSISTAYMELSRLRSDDTAVYYCARRSEDRKAFDIWGQGTMVTVSS VL: DIQMTQSPSTLSASVGDRVTITCRASQSISSWLAWYQQKPGKAPKLLIYKASSLESGVPSKFSGSGSGTEFTLTISSLQPDDFATYYCQQYDTFGQGTKLQIK | binds
G001_gp1_V08_VRC01c_138 (antibody, V domains shown) VH: QVQLVQSGAEVKKPGASVKVSCKASGYTFTDYYMYWVRQAPGQGLEWMGWINPNSGGTNYAQKFQGRVTMTRDTSISTAYMELSGLRSDDTAVYYCARRPNPYSGYDSNAFDIWGQGTMVTVSS VL: DIQMTQSPSTLSASVGDRVTITCRASQSISSWLAWYQQKPGKAPKLLIYKASSLESGVPSRFSGSGSGTEFTLTISSLQPDDSATYYCQQYETFGQGTKVEIK | binds
G001_gp1_V08_VRC01c_122 (antibody, V domains shown) VH: not shown VL: DIQMTQSPSTLSASVGDRVTITCRASQSISSWLAWYQQKPGKAPKLLIYKASSLESGVPSRFSGSGSGTEFTLTISSLQPDDFATYYCQQYETFGQGTKVEIK | binds
G001_gp1_V08_VRC01c_141 (antibody, V domains shown) VH: QVQLVQSGAEVKKPGASVKVSCKASGYSFTDYYMHWVRQAPGQGLEWMGWINPNSGGSNYAQKFQGRVTMTRDSFISTAYMELSRLRSDDTAVYYCAYYDSGTYRYWGQGTLVTVSS VL: DIQMTQSPSTLSASVGDRVTITCRASQSISSWLAWFQQKPGKAPKLLIYKASSLESGVPSRFSGSGSGTEFTLTISSLQPDDFATYYCQQYETFGQGTKVEIK | binds
G001_gp1_V08_VRC01c_120 (antibody, V domains shown) VH: not shown VL: DIQMTQSPSTLSASVGDRVTITCRASQSISNWLAWFQQKPGKAPKLLIYKASNLESGVPSRFSGSGSGTEFTLTISSLQPDDFATYYCQKYNTFGQGTKLEIK | binds
G001_gp1_V08_VRC01c_121 (antibody, V domains shown) VH: QVQLVQSGAEVRKPGASVKVSCKASGYTFTDYYMHWVRQAPGQGLECMGWINPDSGGTNYAQKFQGRVTMTRDTSISTVYMELSRLRSDDTAVYYCARPALYDSSGYNWAYWGQGSLVTVSS VL: DIQMTQSPSTLSASVGDRVTITCRASQSINRWLAWYQQKPGKAPKLLIYKTSSLENGVPSRFNGSGSGTEFTLTISSLQPDDFATYYCQHYETFGQGTKVEIK | binds
G001_gp1_V08_VRC01c_128 (antibody, V domains shown) VH: QVQLVQSGAEVKKPGASVKVSCKASGYTFIDYYMHWVRQAPGQGLEWMGWINPNSGGTNYAQQFQGWVTMTRDTSISTAYMELSRLRSDDTAVYYCATSIVAAGSYWYFDLWGRGTLVTVSS VL: EIVLTQSPGTLSLSPGERATLSCRASQSVTSSYLAWYQKKPGQAPRLLIYGASSRATGIPDRFSGSGSGTDFTLTISRLEPEDFAVYYCQQYEFFGQGTKLEIK | binds
G001_gp1_V08_VRC01c_131 (antibody, V domains shown) VH: QVQLVQSGAEVKKPGASVKVSCKASGYTFTDYYIYWLRQAPGHGLEWMGWINPNSGGTNYAQKFQDWVTMTRDTSISTAYMELSRLSSDDTAVYYCARRNDYLGGSYRYSAFDIWGQGTMVTVSS VL: EIVLTQSPGTLSLSPGERATLSCRASQKVSSRYLAWYQQKPGQAPRLLIYGASSRATGIPDRFSGSGSGTDFTLTISRLEPEDFAVYYCQQYETFGQGTKLEIK | binds
G001_gp1_V08_VRC01c_130 (antibody, V domains shown) VH: QVQLVQSGAEVKKPGASVKVSCKASGYTFTGYYMHWVRQAPGQGLEWLGWINPNSGGTNYAQKFQGWVTMTRDTSISTAYMELSRLRSDDTAVYYCATVAGYSSSWQRGWAFDIWGQGTMVTVSS VL: EIVLTQSPGTLSLSPGEGATLSCRASQSVSSSSLAWYQQKPGQAPRLLIYGASSRATGIPDRFSGSGSGTDFTLTISRLEPEDFAVYYCQLYETFGQGTKVEIK | binds
G001_gp1_V08_VRC01c_139 (antibody, V domains shown) VH: QVQLVQSGAEVKKPGASVKVSCKASGYTFTGSYMHWVRQAPGQGLEWMGWINPNSGGTNYAQKFQGRVTLTRDTSISTAYMELTRLRSDDTTVFYCATSRSGDWYFDLWGRGTLVTVSS VL: EIVLTQSPGTLSLSPGERATLSCRASQSASSSYLAWYQQKPGQAPRLLIYGASSRATGIPDRFSGSGSGTDFTLTISRLEPEDFAMYYCQQYETFGQGTKLEIK | binds
G001_gp1_V08_VRC01c_133 (antibody, V domains shown) VH: QVQLVQSGAEVKKPGASVKVSCKASGYTFTDYYLHWVRQAPGQGLEWMGWINPNSGGTNYARKFQDWVTMTRDTSISTAYMELSRLRSDDTAVYYCARGKTTVSWYFEYWAQGTLVTVSS VL: EIVLTQSPGTLSLSPGERATLSCRASQSVSSSYLAWYQQKPGQAPRLLIYGASSRATGIPDRFSGSGSGTDFTLTISRLEPEDSAVYYCQQYETFGQGTKVEIK | binds
G001_gp1_V08_VRC01c_134 (antibody, V domains shown) VH: QVQLVQSGAEVKKPGASVKVSCKASGYTFTDYYMHWVRQAPGQGLEWMGWINPNSGGTNYAQKFQGWVTMTRDTSISTAYMELSRLTSDDTAVYYCATSIKATNYNWNFDLWGRGTLVTVSS VL: EIVLTQSPGTLSLSPGERATLSCRASQSVTSNLAWYQQKPGQAPRLLIYGASSRATGIPDRFSGSGSGTDFTLTISRLEPEDFAVYYCQQYESFGQGTKLEIK | binds
G001_gp1_V08_VRC01c_145 (antibody, V domains shown) VH: QVQLVQSGAEVKKPGASVKVSCRASGYTFTAYYIHWVRQAPGQGLEWMGWINPNSGGTNYAQKFQGRVTMTRDTSISTAYMELRRLRSDDTAVYYCARRFVSSGYYYAYWGQGTLVTVSS VL: EIVLTQSPGTLSLSPGERATLSCRASQSVSSSYLAWYQQKPGQAPRLLFYGASSRATGIPDRFSGSGSGTDFTLTISRLEPEDFAIYYCQHYETFGQGTKVEIK | binds
G001_gp1_V08_VRC01c_143 (antibody, V domains shown) VH: QVQLVQSGAEVRKPGASVKVSCKASGFTFSDYYIHWVRQAPGQGLEWMGWINPNSGGTNYARKFQGRVTMTRDRSISTAYMELSRLRSDDTAVYYCARGLHTSGWYFAFWGQGTLVTVSS VL: DIQMTQSPSSLSASVGDRVTITCQARQDTSNYLHWYQQKPGKAPKLLIYDASKLEPGVPSRFSGSGSGTDFTFTISNLQPEDIGTYYCQQYEAFGGGTKVEIK | binds
G001_gp1_V08_VRC01c_142 (antibody, V domains shown) VH: QVQLVQSGAEVKKPGASVKVSCKASGYTFTGDYMHWVRQAPGQGLEWMGWINPNSGGTNYAQKFQGWVTMTRDTSISTAYMEVRLRSDDTAVYYCARAGYSSSWGFGFWGQGTLVTVSS VL: QSVLTQPPSVSGAPGERVTISCTGSSSNIGAGYDVHWYQQLPGTAPKLLIFGTSNRPSGVPDRFSGSKSGTSASLAITGLQAEDEADYYCQSYEFFGGGTKLTVL | binds
